The stoichiometry N is a count of units in the complex or per binding partner.

These results are taken from PMC6093860.

Like-named read-outs stand apart in the source and are kept apart here.

For assay [1], the target named is human complement component 9 (C9), wild type (human). The assay can be described thus: cryo-EM structure; polyC9 formed from purified human C9 at 1.1-1.5 mg mL^-1 in 10 mM HEPES pH 7.5, 50 mM NaCl with amphipol A8-35 (0.015-0.02 mg mL^-1), 37 °C overnight; ring of C9 subunits.
The target is the same in assay [2]. The assay is described as above. This is another data set of the same source.

Consider “human complement component 9 (C9), wild type (natural protein)”, for which the stoichiometry N came to 21 in assay [1] and 22 in assay [2].
